Experimental data taken from US9700619B2, “Combination drug therapy for the treatment of solid tumors” (Duke University, priority 2011, dated 2017).

Assays:
[1] = system: patients with advanced solid tumors; assay: Phase I study of ganitumab plus everolimus: DLT, MTD/RPTD and adverse events (NCI Common Toxicity Criteria version 4.0); assay type: in vivo; conditions: subjects on G+E, summary
Description: The maximum tolerated doses/recommended phase II dose for the doublet combination, ganitumab (G) plus everolimus (E) followed by an expanded cohort was evaluated to better understand the safety and tolerability profile of this drug combination.
The primary objective of this study was to determine the maximum tolerated dose (MTD) and Recommended Phase II Dose (RPTD) of G+E in patients with advanced solid tumors. Secondary objectives were to describe any toxicities associated with this regimen and to preliminarily describe clinical activity (progression-free survival (PFS)), overall survival (OS), partial response (PR), complete response (CR) or stable disease (SD)>6 months.
For dose escalation, eligible patients had advanced solid tumors with adequate organ function and no increased risk for class-related toxicities. G was given intravenously, and E was orally administered; cycle length was 28 days. Stage I was a dose escalation; cohort size: 3-6 patients; Stage II was an expansion at MTD with a cohort size of 20 patients.
An intermediate dose of E at 5 mg five times weekly was added to better maximize dose intensity. Dose limiting toxicity (DLT) was assessed in cycle 1.
AEs were graded according to the NCI Common Toxicity Criteria version 4.0. Efficacy was assessed every 2 cycles with computed tomography (CT) using Response Evaluation Criteria in Solid Tumors (RECIST 1.1) guidelines.

skin = assay: Dermapathology evaluation of cutaneous biopsies from study subjects; assay type: in vivo, human
Excerpt: Dose escalation was complete with 17 subjects evaluable for DLT toxicity and 16 evaluable for efficacy (see Table 2). […] One non-treatment-related death was due to disease progression. […] Twelve subjects have available efficacy data; 4 subjects have not yet been restaged. Two subjects with refractory NSCLC achieved a complete response. Six additional subjects had stable disease as best response.

What does the source list for ganitumab?
Skin toxicities [1]: consistent with hypersensitivity to Ganitumab; Finding in the third cutaneous biopsy (skin; interpreted as part of the skin toxicity to G): spongiotic dermatitis with mixed inflammatory infiltrate with abundant eosinophils; Cutaneous biopsies revealing hypersensitivity reaction in the form of superficial perivascular dermatitis (skin; mild perivascular lymphocytic infiltrate with eosinophils, subjects on G+E): 2 out of 3
